Columns and labels:
[1] = target: T1, human IGF-1R (native, on cells) (human, UniProt P08069 31-1367); experiment: cell-based or functional assay
[2] = target: T2, rhIR protein (R&D Systems, cat No 1544-IR/CF) (human, UniProt P06213-2 28-944); experiment: ELISA, coated rhIR 1 ug/ml
T2 construct: extracellular domain; bought; also called rh Insulin R; recombinant human Insulin Receptor
Experimental: (§1) In addition three ELISA were performed (either before or after cloning) to study the binding of antibodies on the recombinant human (hIGF-1R) and murine (mIGF-1R) proteins, and on the recombinant human Insulin Receptor (hIR) protein. […] The plates were then blocked with PBS containing 0.5% gelatin (#22151, Serva Electrophoresis GmbH, Heidelberg, Germany) for 2 h at 37° C. Once the saturation buffer discarded by flicking plates, 100 μl of each supernatant dilution were added to the wells (either undiluted hybridoma supernatant either supernatant serial dilutions) and incubated for 1 h at 37° C. […] Then, ELISA plates were washed 3-times and the TMB (#UP664782, Uptima, Interchim, France) substrate is added. After a 10 min incubation time at room temperature, the reaction was stopped using 1 M sulfuric acid and the optical density at 450 nm is measured.

[3] = target: T1, human IGF-1R (native, on cells); experiment: cell-based or functional assay; remark: listed apart in the source
[4] = target: T3, monkey IGF-1R (on COS-7 cells) (African green monkey); experiment: cell-based or functional assay
[5] = target: T1, human IGF-1R (native, on cells); experiment: FACS, MCF7, 4°C, Ab 5 ug/ml
Experimental: Additionally an internalization assay was performed in order to select only internalizing antibodies. For this assay, the MCF7 tumor cell line was cultured in RMPI 1640 without phenol red with 1% L-glutamine and 10% of […] for 3 days before experiment. Cells were then detached using trypsin and 100 μl of a cell suspension at 4·10⁵ cell/ml are plated in 96-multiwell plates in RPMI1640 without phenol red with 1% L-glutamine and 5% FBS. After a 2 min centrifugation at 2000 rpm, cells were resupended in 50 μl of hybridoma supernatant or control antibody solutions (positive and isotype controls at 1 μg/ml). After a 20 min incubation time at 4° C., cells were centrifuged 2 min at 2000 rpm and resuspended in either cold (4° C.) or warm (37° C.) complete culture medium. Cells were then incubated for 2 hours either at 37° C. or at 4° C. Then cells were washed three times with FACS buffer. An Alexa 488-labeled goat anti-mouse IgG antibody was incubated for 20 minutes and cells were washed three times before FACS analysis on propidium iodide negative cell population.

[6] = target: T4, rmIGF-1R protein (R&D Systems, cat No 6630-GR/Fc) (murine, UniProt Q60751 31-936); experiment: ELISA, coated rmIGF-1R (Table 8)
T4 construct: extracellular domain; bought; also called murine extracellular domain (ECD) of IGF-1R; not shown: Fc only implied by the catalogue number; not described
Experimental: as §1

[7] = target: T1, human IGF-1R (native, on cells); experiment: cell-based or functional assay; remark: listed apart in the source
[8] = target: T1, human IGF-1R (native, on cells); experiment: FACS, Tf hIGF1R+ cells, Ab 5 ug/ml
[9] = target: T4, rmIGF-1R protein (R&D Systems, cat No …); experiment: ELISA, coated rm IGF-1R, SNT 5 ug/ml
Experimental: as §1

[10] = target: T5, human insulin receptor (on cells) (human, UniProt P06213 28-1382); experiment: FACS on hIR+ transfected cells, 4°C
T5 construct: whole, on cells; on stably transfected cells or on IM9 cells; also called hIR; IR
Experimental: (§2) In order to verify the absence of binding of both murine and chimeric antibodies on hIR, a stable cell line expressing the human IR was used. The recognition of human cell surface hIR by both murine and chimeric Ab was performed by FACS analyses. Increasing concentrations of either the murine or the chimeric mAbs were incubated on the hIR′ transfected cell line for 20 minutes at 4° C. in FACS buffer (PBS, 0.1% BSA, 0.01% NaN₃). Cells were then washed 3 times and incubated with the appropriate secondary antibody coupled with Alexa 488 before being incubated for 20 additional minutes at 4° C. in the dark and then washed 3 times in FACS buffer. The binding of anti-IGF-1R antibodies was immediately performed on viable cells which were identified using propidium iodide (that stains dead cells). The binding EC₅₀ expressed in molarity (M) was calculated using a nonlinear regression analysis (GraphPad Prims 4.0). […] The c9G4 was introduced as an irrelevant antibody (isotype control).

[11] = target: T1, human IGF-1R (native, on cells); experiment: FACS on MCF-7 cells, 4°C; inset table, axis log [M]
Experimental: The binding properties of a series of anti-IGF-1R antibodies were evaluated by FACS analyses on the human MCF-7 breast adenocarcinoma cell line (ATCC#HTB-22) using increasing antibody concentrations. For that purpose, cells (1×10⁶ cells/ml) were incubated with anti-IGF-1R antibodies for 20 min. at 4° C. in FACS buffer (PBS, 0.1% BSA, 0.01% NaN₃). They were then washed 3 times and incubated with the appropriate secondary antibody coupled with Alexa 488 for 20 additional minutes at 4° C. in the dark before being washed 3 times in FACS buffer. The binding of anti-IGF-1R antibodies was immediately performed on viable cells which were identified using propidium iodide (that stains dead cells). The maximum of signal intensity obtained with each antibody was designed as Bₘₐₓ and expressed in mean of fluorescence intensity (MFI). The EC₅₀ of binding expressed in molarity (M) was calculated using a nonlinear regression analysis (GraphPad Prims 4.0).

[12] = target: T3, monkey IGF-1R (on COS-7 cells); experiment: FACS on COS-7 cells, 4°C; inset table, axis log [M]
Experimental: In order to evaluate the binding of anti-IGF-1R antibodies on monkey IGF-1R, the binding of both murine and chimeric anti-hIGF-1R antibodies was evaluated by FACS analyses on COS-7 cell line using increasing antibody concentrations. Cells (1×10⁶ cells/ml) were incubated with anti-IGF-1R antibodies for 20 minutes at 4° C. in FACS buffer (PBS, 0.1% BSA, 0.01% NaN₃). Then, cells were washed 3 times and incubated with the appropriate secondary antibody coupled with Alexa 488 before being incubated for 20 additional minutes at 4° C. in the dark and finally washed 3 times in FACS buffer. The binding of anti-IGF-1R antibodies was immediately evaluated on viable cells identified using propidium iodide (that stains dead cells). The binding EC₅₀ expressed in molarity (M) was calculated using a nonlinear regression analysis (GraphPad Prims 4.0).

[13] = target: T3, monkey IGF-1R (on COS-7 cells); experiment: FACS, Cos-7 (monkey IGF1R+), Ab 5 ug/ml
[14] = target: T5, human insulin receptor (on cells); experiment: FACS on IM-9 cells (express hIR), 4°C
Experimental: as §2
For this FACS analysis, the protocol was the same as the one described previously and murine anti-IGF-1R antibodies were used in order to prevent the cross reactivity of the secondary anti-human Ab (IM9 cells express human Ig on their cell surface).

T4 sequence (Q60751 31-936): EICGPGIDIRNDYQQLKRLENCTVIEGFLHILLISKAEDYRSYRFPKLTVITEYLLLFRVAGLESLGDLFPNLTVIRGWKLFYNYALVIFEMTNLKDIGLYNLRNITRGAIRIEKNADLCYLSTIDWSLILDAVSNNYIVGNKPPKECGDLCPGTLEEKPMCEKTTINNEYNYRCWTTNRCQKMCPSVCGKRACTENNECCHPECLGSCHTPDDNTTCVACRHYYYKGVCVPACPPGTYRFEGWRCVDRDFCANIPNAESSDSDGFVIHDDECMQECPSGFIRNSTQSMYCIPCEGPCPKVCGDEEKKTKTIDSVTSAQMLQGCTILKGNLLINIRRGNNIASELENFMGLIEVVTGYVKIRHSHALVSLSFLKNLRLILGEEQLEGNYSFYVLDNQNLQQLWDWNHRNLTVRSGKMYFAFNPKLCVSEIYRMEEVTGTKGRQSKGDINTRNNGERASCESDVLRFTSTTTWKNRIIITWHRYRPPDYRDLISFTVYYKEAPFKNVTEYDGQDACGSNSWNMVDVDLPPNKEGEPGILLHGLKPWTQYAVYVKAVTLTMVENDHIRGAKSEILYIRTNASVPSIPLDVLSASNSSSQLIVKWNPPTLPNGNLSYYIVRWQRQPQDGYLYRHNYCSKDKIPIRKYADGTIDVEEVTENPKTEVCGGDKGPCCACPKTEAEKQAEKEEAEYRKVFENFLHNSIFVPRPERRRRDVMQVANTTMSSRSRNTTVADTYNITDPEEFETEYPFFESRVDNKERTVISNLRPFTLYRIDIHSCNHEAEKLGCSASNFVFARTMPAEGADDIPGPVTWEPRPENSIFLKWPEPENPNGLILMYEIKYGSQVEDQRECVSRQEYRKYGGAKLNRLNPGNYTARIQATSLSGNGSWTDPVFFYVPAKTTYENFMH

Binder	hIGF-1R phosphorylation in response to IGF-1 (western blot, MCF-7) [1] [%]	binding result [2]	% remaining rh IGF1R [3] [%]	MFI 37°C (internalisation assay, MCF7) [3] [MFI]	Δ (MFI 4°C - MFI 37°C) [3] [MFI]	% internalisation [4] [%]	ΔMFI [4] [MFI]	MFI 4°C [5] [MFI]	binding result [6]	HalfLife (decay of cell-surface bound antibody on MCF-7 at 37°C) [7]	MFI [8] [MFI]	D.O 450 nm [9] [D.O 450 nm]	binding result [10]	EC50 [11] [nM]	EC50 [12] [nM]	MFI [13] [MFI]	binding result [14]
m208F2 (antibody, V domains shown, murine mAb, hybridoma CNCM I-4757, group G2; also called murine 208F2) VH: QVQLQQSGPELVKPGASVKMSCKASGYTFTSYYIYWVKQRPGQGLEWLGWIWPGDGSTKYNEKFKDKTTLTADKSSNTAYMFLSSLTSEDSAVYFCASPMITPNYAMDYWGQGASVTVSS VL: DIQMTQTTSSLSASLGDRVTISCRASQDISKYLNWYQQQPDGTIKLLIYYTSRLHSGVPSRFSGRGSGTDYSLTISNVEQEDIATYFCQQGSTLPYTFGGGTKLEIK	> 80	no binding	27	94	261	74	53	355	no binding	11.1 min (unit from p-0380; none on the sheet)	2200	0.099	no binding (tested: log [M] about -6.5 (about 3e-7 M))	0.526	0.758	–	–
m213B10 (antibody, V domains shown, murine mAb, hybridoma CNCM I-4774, group G2) VH: QVQLQQSGSELVKPGASVKMSCKASGYTFTSYYIHWVKQRPGQGLEWIGWIWPGDGSTKYNERFKGKTTLTADKSSSTAYMFLSSLTSEDSAVYFCASPMITPNYAMDYWGQGASVTVSS VL: DIQMTQTTSSLSASLGDRVTISCRASQDISKYLNWYQQQPDGTIKLLIYYTSRLHSGVPSRFSGRGSGTDYSLTITNLEQEDIATYFCQQGSALPYTFGGGTKLEIK	> 80	no binding	30	115	271	74	84	386	no binding	12.8 min (unit from p-0380; none on the sheet)	2060	0.127	–	–	–	122	no binding (tested: log [M] about -6.5 (about 3e-7 M))
m214F8 (antibody, V domains shown, murine mAb, hybridoma CNCM I-4775, group G2) VH: QVQLQQSGSELVKPGASVKLSCKASGYTFTSYYIHWVKQRPGQGLEWIGWIWPGDGSTKYNERFKGKTTLTADKSSSTAYMFLSSLTSEDSAVYFCASPMITPNYAMDYWGQGASVTVSS VL: DIQMTQTTSSLSASLGDRVTFSCRASQDISKYLNWYQQQPDGTIKLLIYYTSRLHSGVPSRFSGRGSGTDYSLTITNLEQEDIATYFCQQGSALPYTFGGGTKLEIK	> 80	no binding	29	111	275	71	76	386	no binding	16.8 min (unit from p-0380; none on the sheet)	2140	0.102	–	–	–	132	no binding (tested: log [M] about -6.5 (about 3e-7 M))

Source: US20170267766A1 (PIERRE FABRE MEDICAMENT, published 2017)
